Source: patent publication US20220153832A1 (PIONYR IMMUNOTHERAPEUTICS, published 2022)

T1: N-terminally polyhistidine tagged human MARCO ECD (147-520), recombinant (human, UniProt Q9UEW3 147-520)
T1 construct: also called PI-RG-3000; recombinant human MARCO; not shown: N-terminal polyhistidine tag
T1 sequence: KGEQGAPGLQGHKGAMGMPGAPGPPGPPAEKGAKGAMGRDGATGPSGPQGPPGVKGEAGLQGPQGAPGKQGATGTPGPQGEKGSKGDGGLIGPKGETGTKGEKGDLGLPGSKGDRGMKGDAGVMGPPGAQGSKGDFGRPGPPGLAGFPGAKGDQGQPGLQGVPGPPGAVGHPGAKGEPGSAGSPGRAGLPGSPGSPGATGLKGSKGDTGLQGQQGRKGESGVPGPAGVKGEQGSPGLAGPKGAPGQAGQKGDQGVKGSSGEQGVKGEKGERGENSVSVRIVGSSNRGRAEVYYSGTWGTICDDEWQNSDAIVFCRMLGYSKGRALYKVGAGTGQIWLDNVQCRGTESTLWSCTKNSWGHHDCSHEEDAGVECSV

T2: recombinant cynomolgus MARCO protein (cynomolgus, UniProt A0A2K5X0Z2 65-519)
T2 construct: Construct not described; also called cyno MARCO; cynoMARCO
T2 sequence: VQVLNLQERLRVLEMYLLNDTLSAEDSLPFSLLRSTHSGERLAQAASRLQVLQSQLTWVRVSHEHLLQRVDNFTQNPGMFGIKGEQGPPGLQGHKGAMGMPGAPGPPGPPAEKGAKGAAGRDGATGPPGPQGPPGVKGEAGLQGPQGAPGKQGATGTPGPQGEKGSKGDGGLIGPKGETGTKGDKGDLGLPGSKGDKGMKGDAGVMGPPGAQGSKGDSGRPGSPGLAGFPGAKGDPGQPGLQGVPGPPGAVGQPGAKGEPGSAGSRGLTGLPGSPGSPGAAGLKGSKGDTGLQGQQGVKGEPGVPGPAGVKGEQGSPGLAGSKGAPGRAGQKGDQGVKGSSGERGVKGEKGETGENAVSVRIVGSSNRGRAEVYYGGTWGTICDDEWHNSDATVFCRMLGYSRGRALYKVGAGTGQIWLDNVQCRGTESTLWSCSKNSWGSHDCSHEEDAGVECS

T3: Human Macrophage Receptor with Collagenous Structure (MARCO), full length, on cells (human, UniProt Q9UEW3 1-520)
T3 construct: the cell type is named under assay; also called huMARCO; HuMARCO
T3 sequence: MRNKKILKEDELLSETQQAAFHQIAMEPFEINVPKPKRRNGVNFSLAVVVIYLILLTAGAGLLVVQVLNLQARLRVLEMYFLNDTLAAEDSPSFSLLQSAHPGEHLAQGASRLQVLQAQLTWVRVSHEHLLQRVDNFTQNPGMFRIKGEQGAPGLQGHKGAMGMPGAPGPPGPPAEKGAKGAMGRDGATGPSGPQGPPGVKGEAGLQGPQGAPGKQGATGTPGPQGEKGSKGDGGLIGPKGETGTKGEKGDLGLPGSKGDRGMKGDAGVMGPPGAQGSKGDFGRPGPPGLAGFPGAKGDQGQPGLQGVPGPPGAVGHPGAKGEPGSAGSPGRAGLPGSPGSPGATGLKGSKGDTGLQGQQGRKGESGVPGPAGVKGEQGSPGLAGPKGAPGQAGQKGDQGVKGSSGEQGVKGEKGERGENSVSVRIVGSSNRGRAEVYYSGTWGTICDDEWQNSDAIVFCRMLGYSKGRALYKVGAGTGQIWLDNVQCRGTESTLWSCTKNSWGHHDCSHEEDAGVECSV

T4: mouse MARCO (R&D biosystems), recombinant, coated in the LDL competition assay (mouse, UniProt Q60754 70-518, limits assumed)
T4 sequence (looked up): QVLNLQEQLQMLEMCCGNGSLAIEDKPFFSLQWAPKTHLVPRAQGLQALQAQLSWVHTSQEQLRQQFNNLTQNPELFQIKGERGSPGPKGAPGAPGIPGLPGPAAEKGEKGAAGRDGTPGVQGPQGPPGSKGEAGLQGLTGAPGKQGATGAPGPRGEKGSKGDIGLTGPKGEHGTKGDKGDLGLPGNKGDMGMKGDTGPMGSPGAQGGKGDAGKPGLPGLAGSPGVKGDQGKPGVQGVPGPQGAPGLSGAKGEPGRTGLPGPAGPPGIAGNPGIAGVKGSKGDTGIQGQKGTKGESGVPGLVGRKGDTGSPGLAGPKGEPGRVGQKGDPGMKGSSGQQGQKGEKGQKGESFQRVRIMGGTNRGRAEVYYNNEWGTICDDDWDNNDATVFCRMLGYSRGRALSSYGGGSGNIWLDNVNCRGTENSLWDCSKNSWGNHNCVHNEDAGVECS


Experiments:
[1] = target: T1, N-terminally polyhistidine tagged human …; assay: SPR, single cycle (sc)
[2] = target: T2, recombinant cynomolgus MARCO protein; assay: SPR, single cycle (sc)
[3] = target: T3, Human Macrophage Receptor with …; assay: competition with AF488 E. coli binding to 293T cells expressing MARCO, flow cytometry
Experimental: Zombie NIR viability dye (BioLegend) was prepared by diluting the stock 1000-fold in D-PBS and added to the cells. The cells were incubated with the dye for 10 min at RT in the dark. The reaction was quenched by adding 1 m of 4× Staining buffer (2% FBS in DBPS containing Ca²⁺), followed by centrifugation at 400×g for 5 min at 4° C. Cells were then plated in V-shaped 96 well plates at a density of 100,000 cells. A488-fluorescently labeled bacteria (E. coli from Invitrogen) was added at 10 μg/ml with the anti-human or anti-mouse antibodies of interest for a 30 min incubation at 37 C. Plates were then washed twice followed by resuspension in 100 ul of staining buffer for acquisition on the flow cytometer (Attune NxT, Life Technologies). Flow cytometry data were analyzed using FlowJo software (version 10.6.1) and data were processed and further analyzed in Microsoft Excel and GraphPad Prism software (version 8).
The newly generated rat hybridoma anti-human MARCO antibodies were characterized as previously described. Neither antibody bound to MSR1. Binding kinetics were determined via Multi Cycle Kinetics analysis using the huMARCO antigen as previously described.

[4] = target: T4, mouse MARCO (R&D biosystems), …; assay: LDL competition on coated mouse MARCO (MSD), competitor biotinylated hLDL
Experimental: A high-binding, 96-well MSD plate was coated with 4 μg/ml mouse MARCO or 4 μg/ml human MARCO (R&D biosystems). After the plate was blocked with PBST and 5% BSA for an hour, titrated anti-mouse or anti-human MARCO antibodies were added to the plate and incubated for 30 minutes. Biotinylated hLDL (860 pM or 2 μg/ml) were added to the antibody, and the antibody/LDL mixture was incubated for an hour to allow the mixture to reach binding equilibrium. The plates were washed and bound biotinylated LDL was detected with Sulfo-tagged streptavidin that generates an electrocheminlumenscent signal when read buffer is added and electricity is applied to the electrodes in the MSD plate. IC50's were calculated using a 4-parameter curve fit in GraphPad Prism software.

| Kd [1] [nM] | Kd [2] [nM] | EC50 [3] [nM] | EC50 [4] [nM] | Binder |
| --- | --- | --- | --- | --- |
| 0.43 | 0.259 |  |  | PI-3010-AB (antibody, human IgG1, kappa) heavy: not shown light: DIQMTQSPASLSTSLGETVSIECLASEGISNDLAWYQQKSGKSPQLLIYAASRLQDGVPSRFSGSGSGTRYSLKISGMQPEDEADYFCQQSYKYPLTFGSGTKLEIKRTVAAPSVFIFPPSDEQLKSGTASVVCLLNNFYPREAKVQWKVDNALQSGNSQESVTEQDSKDSTYSLSSTLTLSKADYEKHKVYACEVTHQGLSSPVTKSFNRGEC |
|  |  | 0.52 |  | PI-HX-3061 (antibody, rat IgG2a, Parental rat hybridoma, rat IgG2a; cross reactive with human and mouse MARCO) heavy: EVQLVESGGGLVQPGSSLKLSCVASKFTFSNYGMNWIRQAPKKGLEWIALIYYNSNNKYYADSVKGRFTISRDNSKNTLYLEMNSLRSEDTAMYYCAKSLTGGSDYFDSWGQGVMVTVSSAETTAPSVYPLAPGTALKSNSMVTLGCLVKGYFPEPVTVTWNSGALSSGVHTFPAVLQSGLYTLTSSVTVPSSTWPSQTVTCNVAHPASSTKVDKKIVPRNCGGDCKPCICTGSEVSSVFIFPPKPKDVLTITLTPKVTCVVVDISQDDPEVHFSWFVDDVEVHTAQTRPPEEQFNSTFRSVSELPILHQDWLNGRTFRCKVTSAAFPSPIEKTISKPEGRTQVPHVYTMSPTKEEMTQNEVSITCMVKGFYPPDIYVEWQMNGQPQENYKNTPPTMDTDGSYFLYSKLNVKKEKWQQGNTFTCSVLHEGLHNHHTEKSLSHSP light: DVQMTQSPSYLAASPGESVSISCKASKSIGTFLAWYQEKPEKTNKLLIYSGSTLQSGTPSRFSGSGSGTDFTLTIRNLEPEDFAVYYCQQHDEYPFTFGSGTKLEIKRADAAPTVSIFPPSTEQLATGGASVVCLMNNFYPRDISVKWKIDGTERRDGVLDSVTDQDSKDSTYSMSSTLSLTKADYESHNLYTCEVVHKTSSSPVVKSFNRNEC |
|  |  |  | 0.25 | PI-HX-3021 (antibody, V domains shown, Rat IgG2a hybridoma antibody; Not the effector dead PI-3021; also called PI-3007 (name of the recombinant form)) VH: QVRLVQSGTALVRPGASVRMSCTASGYSFTDYWVSWVKQSHGQSLEWIGEIYPNSGTTNFNEKFEGKATLTVDKSTSTAYMELSRLTSEDSAIYYCTGEGTFDYWGQGVMVTVSS VL: EIVLTQSPTTMAASPGEKVTITCRPSSSLSNMHWFQQKSGTSPKPWIYDTSKLASGVPDRFSGSGSGTSYSLTISSMEAEDAATYYCLQRSSYPPTFGAGTKLELK |
|  |  |  | 0.34 | PI-HX-3016 (antibody, rat IgG1, V domains shown, Rat IgG1 hybridoma antibody) VH: EVQLVESGGGLVKPGASLKLSCVASGFTFSDDWMNWVRQTPGKAMEWIGDIKYDGSYTNYVPSLKNRLTISRDNAKNTLYLQMTNVRSEDTATYYCTSGGVFDYWGQGVMVTVSS VL: EIVLSQSPTTMAASPGEKVTITCRASSSVSYMHWFQQKSGTSPKPWIYDTSKLASGVPDRFSGSGSGTSYSLTISSMEAEDAATYYCLQRSGYPPTFGAGTKLEVK |
| 0.911 | 0.611 |  |  | PI-3015-AB (antibody, human IgG1, kappa) heavy: not shown light: DIQMTQSPSSLSASVGDRVTITCRASEGISNDLAWYQQKPGKAPKLLIYAASRLQSGVPSRFSGSGSGTDYTLTISSMQPEDFATYYCQQSYKYPLTFGQGTKLEIKRTVAAPSVFIFPPSDEQLKSGTASVVCLLNNFYPREAKVQWKVDNALQSGNSQESVTEQDSKDSTYSLSSTLTLSKADYEKHKVYACEVTHQGLSSPVTKSFNRGEC |
|  |  | 0.18 |  | PI-HX-3031 (antibody, Parental rat hybridoma, rat IgG2a) heavy: QVQLKESGPGLVQPSQTLSLTCTVSGFSLTSYHVSWVRQPPGKGLEWMGAIWTGGSIAYNSLLKSRLSISRDTSKSQVFLKMNSLQTEDTATYYCARDLSDYYSSYTSFDYWGQGVMVTVSTAETTAPSVYPLAPGTALKSNSMVTLGCLVKGYFPEPVTVTWNSGALSSGVHTFPAVLQSGLYTLTSSVTVPSSTWSSQAVTCNVAHPASSTKVDKKIVPRECNPCGCTGSEVSSVFIFPPKTKDVLTITLTPKVTCVVVDISQNDPEVRFSWFIDDVEVHTAQTHAPEKQSNSTLRSVSELPIVHRDWLNGKTFKCKVNSGAFPAPIEKSISKPEGTPRGPQVYTMAPPKEEMTQSQVSITCMVKGFYPPDIYTEWKMNGQPQENYKNTPPTMDTDGSYFLYSKLNVKKETWQQGNTFTCSVLHEGLHNHHTEKSLSHSP light: DIQMTQSPASLSTSLGETVSIECLASEGISNDLAWYQQKSGKSPQLLIYAASRLQDGVPSRFSGSGSGTRYSLKISGMQPEDEADYFCQQSYKYPLTFGSGTKLEIKRADAAPTVSIFPPSTEQLATGGASVVCLMNNFYPRDISVKWKIDGTERRDGVLDSVTDQDSKDSTYSMSSTLSLTKADYESHNLYTCEVVHKTSSSPVVKSFNRNEC |
